Results published in patent publication US20120178694A1 (University of Pennsylvania, published 2012).
Bridge positions count the residues as written; N and C are the ends. Square brackets hold non-standard residues; d marks the D form. Trp(1-Me) = Cn1cc(C[C@H](N)C(=O)O)c2ccccc21; NMeW = CN[C@@H](Cc1c[nH]c2ccccc12)C(=O)O; NMeH = CN[C@@H](Cc1c[nH]cn1)C(=O)O; NMeR = CN[C@@H](CCCNC(=N)N)C(=O)O; NMeQ = CN[C@@H](CCC(N)=O)C(=O)O; NMeD = CN[C@@H](CC(=O)O)C(=O)O; NMeC = CN[C@@H](CS)C(=O)O; Sar = CNCC(=O)O

Legend:
[1] = molecular target: T1, C3 purified from fresh human plasma (human, UniProt P01024 23-1663); experiment: cell-based or functional assay
T1 sequence (P01024 23-1663): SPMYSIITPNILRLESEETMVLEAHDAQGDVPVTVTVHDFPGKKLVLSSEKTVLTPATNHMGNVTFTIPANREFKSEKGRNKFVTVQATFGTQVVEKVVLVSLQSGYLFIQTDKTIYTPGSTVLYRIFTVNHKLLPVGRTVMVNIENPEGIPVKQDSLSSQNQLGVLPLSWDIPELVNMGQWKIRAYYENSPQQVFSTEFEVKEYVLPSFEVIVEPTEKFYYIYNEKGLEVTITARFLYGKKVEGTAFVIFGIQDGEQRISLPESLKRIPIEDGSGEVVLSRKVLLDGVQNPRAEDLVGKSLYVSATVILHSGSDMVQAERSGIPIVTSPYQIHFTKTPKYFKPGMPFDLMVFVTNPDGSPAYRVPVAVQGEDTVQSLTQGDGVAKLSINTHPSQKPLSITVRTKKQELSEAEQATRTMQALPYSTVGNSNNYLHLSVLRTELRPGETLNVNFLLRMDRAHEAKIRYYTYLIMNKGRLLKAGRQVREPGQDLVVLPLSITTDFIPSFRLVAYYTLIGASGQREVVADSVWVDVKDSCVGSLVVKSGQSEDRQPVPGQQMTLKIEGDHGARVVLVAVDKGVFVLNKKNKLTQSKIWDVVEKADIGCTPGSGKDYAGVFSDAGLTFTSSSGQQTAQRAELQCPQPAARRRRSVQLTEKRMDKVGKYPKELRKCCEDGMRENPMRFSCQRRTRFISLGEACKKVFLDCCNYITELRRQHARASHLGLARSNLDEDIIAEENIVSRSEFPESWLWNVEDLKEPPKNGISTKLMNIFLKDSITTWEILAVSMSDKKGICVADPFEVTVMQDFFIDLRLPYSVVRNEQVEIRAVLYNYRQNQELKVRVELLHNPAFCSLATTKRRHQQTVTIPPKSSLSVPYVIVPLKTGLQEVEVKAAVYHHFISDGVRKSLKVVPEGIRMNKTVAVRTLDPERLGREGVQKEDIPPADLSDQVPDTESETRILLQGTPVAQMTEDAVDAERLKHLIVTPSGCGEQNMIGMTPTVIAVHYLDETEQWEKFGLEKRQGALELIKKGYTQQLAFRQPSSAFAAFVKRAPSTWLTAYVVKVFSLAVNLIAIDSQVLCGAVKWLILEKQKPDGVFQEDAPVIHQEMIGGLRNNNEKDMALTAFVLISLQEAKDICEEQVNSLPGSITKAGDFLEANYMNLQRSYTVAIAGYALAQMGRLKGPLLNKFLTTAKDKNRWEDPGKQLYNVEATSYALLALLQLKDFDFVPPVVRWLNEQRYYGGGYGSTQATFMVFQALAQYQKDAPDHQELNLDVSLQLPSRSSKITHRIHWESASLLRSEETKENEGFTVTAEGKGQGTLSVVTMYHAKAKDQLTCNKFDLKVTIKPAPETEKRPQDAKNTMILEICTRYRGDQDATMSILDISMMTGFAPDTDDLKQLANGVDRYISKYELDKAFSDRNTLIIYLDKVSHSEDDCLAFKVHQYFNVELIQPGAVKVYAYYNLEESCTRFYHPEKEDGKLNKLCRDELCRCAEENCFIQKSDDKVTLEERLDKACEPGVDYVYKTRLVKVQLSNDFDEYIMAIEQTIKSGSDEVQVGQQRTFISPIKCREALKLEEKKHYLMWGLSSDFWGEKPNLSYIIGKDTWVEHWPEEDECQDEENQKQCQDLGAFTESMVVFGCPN

biotinylated C3b [2] = molecular target: biotinylated C3b (UniProt P01024); experiment: SPR, Biacore 3000; biotinylated C3b on streptavidin chip, peptide injected; 1:1 fit
[3] = molecular target: T1, C3 purified from fresh human plasma; experiment: cell-based or functional assay; remark: listed apart in the source
[4] = molecular target: T1, C3 purified from fresh human plasma; experiment: cell-based or functional assay; remark: listed apart in the source
[5] = molecular target: T1, C3 purified from fresh human plasma; experiment: cell-based or functional assay; remark: listed apart in the source
[6] = molecular target: T1, C3 purified from fresh human plasma; experiment: ITC with C3; relative to peptide 14
Procedure: (§1) ITC analysis. All ITC experiments were performed with the Microcal VP-ITC calorimeter (Microcal Inc., Northampton, Mass.), using protein concentrations of 1.8-5 μM C3 in the cell and peptide concentrations of 40-100 μM of individual compstatin analogs in the syringe. All titrations were performed in PBS (10 mM phosphate buffer with 150 mM NaCl, pH 7.4) at 25° C. using multiple peptide injections of 2-7 μL each. The raw isotherms were corrected for the heats of dilution by subtracting the isotherms representing peptide injections into the buffer. The resulting isotherms were fitted to a single site of sites models using Origin 7.0 software, and the model that produced the lowest χ² value was deemed to be appropriate for the respective data set. The Gibbs free energy was calculated as ΔG=ΔH−TΔS. Each experiment was repeated at least twice.
(§2) Characterization of binding thermodynamics.

biotinylated C3b [7] = molecular target: biotinylated C3b (UniProt P01024); experiment: SPR on immobilised C3b; ratio relative to peptide 14
[8] = molecular target: T1, C3 purified from fresh human plasma; experiment: ITC; peptide titrated into C3, PBS, 25 C
Procedure: as §1, §2

B1: Ac-I[CVYQD(NMe)WGAHRC]T-NH2 (peptide)
peptide: Ac-ICVYQD[NMeW]GAHRCT-NH2
modifications: disulfide 2-12
SMILES: CC[C@H](C)[C@H](NC(C)=O)C(=O)N[C@H]1CSSC[C@@H](C(=O)N[C@H](C(N)=O)[C@@H](C)O)NC(=O)[C@H](CCCNC(=N)N)NC(=O)[C@H](Cc2c[nH]cn2)NC(=O)[C@H](C)NC(=O)CNC(=O)[C@H](Cc2c[nH]c3ccccc23)N(C)C(=O)[C@H](CC(=O)O)NC(=O)[C@H](CCC(N)=O)NC(=O)[C@H](Cc2ccc(O)cc2)NC(=O)[C@H](C(C)C)NC1=O
**Q.** What does the source list for B1?
**A.** IC50 (CP), inhibition of classical pathway complement activation, ELISA [1]: 25 µM; IC50-fold change relative to peptide 1 [1]: 0.1 fold

B2: Peptide 17-ABP (peptide)
peptide: ICVWQDWGAHRCIK
chain: RLIEDICLPRWGCLWEDD
modifications: propiolic acid on the N-terminus, joined by triazole to the azido-Lys of the peptide 17 chain; N-terminal acetyl; 1-methyl-Trp at 4; N-methyl-Gly (Sar) at 8; disulfide Cys2-Cys12 (cyclic); two mini-PEG-3 spacers between Ile13 and a C-terminal Lys-NH2; 2-azidoacetyl on the Lys side chain, joined by azide-alkyne cycloaddition (triazole) to the ABP
**Q.** With B2 as the binder, how does the Kd (biotinylated C3b [2]) read?
**A.** Its Kd is 32 nM.

**Q.** What about the koff (biotinylated C3b [2]) of the same binder?
**A.** The koff was 0.0036 s⁻¹.

**Q.** And the kon (biotinylated C3b [2])?
**A.** The kon was 100000 M⁻¹ s⁻¹.

**Q.** What about the “IC50 (nM, CP), inhibition of classical pathway complement activation, ELISA, human serum” value [3] of the same binder?
**A.** Its value is 242 nM.

**Q.** What about the “IC50 fold change relative to peptide 17” value [3] of the same binder?
**A.** Its value is 0.38 fold.

B3: peptide 23 (peptide)
peptide: Ac-ICV[Trp(1-Me)]QDW[Sar]AHRCF-NH2
modifications: disulfide 2-12
SMILES: CC[C@H](C)[C@H](NC(C)=O)C(=O)N[C@H]1CSSC[C@@H](C(=O)N[C@@H](Cc2ccccc2)C(N)=O)NC(=O)[C@H](CCCNC(=N)N)NC(=O)[C@H](Cc2c[nH]cn2)NC(=O)[C@H](C)NC(=O)CN(C)C(=O)[C@H](Cc2c[nH]c3ccccc23)NC(=O)[C@H](CC(=O)O)NC(=O)[C@H](CCC(N)=O)NC(=O)[C@H](Cc2cn(C)c3ccccc23)NC(=O)[C@H](C(C)C)NC1=O
**Q.** With B3 as the binder, how does the “rP, relative potency compared to peptide 14” value [4] read?
**A.** The value was 0.8 fold.

**Q.** And the “IC50, inhibition of classical pathway complement activation, ELISA” value [5]?
**A.** The value was 257 nM.

B4: Ac-I[CVY(NMe)QDWGAHRC]T-NH2 (peptide)
peptide: Ac-ICVY[NMeQ]DWGAHRCT-NH2
modifications: disulfide 2-12
SMILES: CC[C@H](C)[C@H](NC(C)=O)C(=O)N[C@H]1CSSC[C@@H](C(=O)N[C@H](C(N)=O)[C@@H](C)O)NC(=O)[C@H](CCCNC(=N)N)NC(=O)[C@H](Cc2c[nH]cn2)NC(=O)[C@H](C)NC(=O)CNC(=O)[C@H](Cc2c[nH]c3ccccc23)NC(=O)[C@H](CC(=O)O)NC(=O)[C@H](CCC(N)=O)N(C)C(=O)[C@H](Cc2ccc(O)cc2)NC(=O)[C@H](C(C)C)NC1=O
**Q.** Which results are given for B4?
**A.** IC50 (CP), inhibition of classical pathway complement activation, ELISA [1]: 33 µM; IC50-fold change relative to peptide 1 [1]: 0.07 fold

B5: peptide 16 (peptide)
peptide: Ac-ICV[Trp(1-Me)]QDWGAHRCI-NH2
modifications: disulfide 2-12
SMILES: CC[C@H](C)[C@H](NC(=O)[C@@H]1CSSC[C@H](NC(=O)[C@@H](NC(C)=O)[C@@H](C)CC)C(=O)N[C@@H](C(C)C)C(=O)N[C@@H](Cc2cn(C)c3ccccc23)C(=O)N[C@@H](CCC(N)=O)C(=O)N[C@@H](CC(=O)O)C(=O)N[C@@H](Cc2c[nH]c3ccccc23)C(=O)NCC(=O)N[C@@H](C)C(=O)N[C@@H](Cc2c[nH]cn2)C(=O)N[C@@H](CCCNC(=N)N)C(=O)N1)C(N)=O
notes: Peptide 14 scaffold with Gly^8, Ile^13; also called 16 (6)
**Q.** Which results are given for B5?
**A.** -TΔΔS [6]: -1.3 kcal/mol; rKD ITC [6]: 1.2 fold; ΔΔG [6]: -0.2 kcal/mol; ΔΔH [6]: 1 kcal/mol; rKD SPR (biotinylated C3b [7]): 1.1 fold; rka (biotinylated C3b [7]): 1 fold; rkd (biotinylated C3b [7]): 1 fold; -TΔS [8]: 5.7 kcal/mol; ΔG [8]: -10.9 kcal/mol; ΔH [8]: -16.6 kcal/mol

B6: peptide 22 (peptide)
peptide: Ac-ICV[Trp(1-Me)]QDW[Sar]AHRCH-NH2
modifications: disulfide 2-12
SMILES: CC[C@H](C)[C@H](NC(C)=O)C(=O)N[C@H]1CSSC[C@@H](C(=O)N[C@@H](Cc2c[nH]cn2)C(N)=O)NC(=O)[C@H](CCCNC(=N)N)NC(=O)[C@H](Cc2c[nH]cn2)NC(=O)[C@H](C)NC(=O)CN(C)C(=O)[C@H](Cc2c[nH]c3ccccc23)NC(=O)[C@H](CC(=O)O)NC(=O)[C@H](CCC(N)=O)NC(=O)[C@H](Cc2cn(C)c3ccccc23)NC(=O)[C@H](C(C)C)NC1=O
**Q.** Which “IC50, inhibition of classical pathway complement activation, ELISA” value [5] does the source give for B6 here?
**A.** The value was 160 nM.

B7: Ac-I[CVYQDWGAH(NMe)RC]T-NH2 (peptide)
peptide: Ac-ICVYQDWGAH[NMeR]CT-NH2
modifications: disulfide 2-12
SMILES: CC[C@H](C)[C@H](NC(C)=O)C(=O)N[C@H]1CSSC[C@@H](C(=O)N[C@H](C(N)=O)[C@@H](C)O)NC(=O)[C@H](CCCNC(=N)N)N(C)C(=O)[C@H](Cc2c[nH]cn2)NC(=O)[C@H](C)NC(=O)CNC(=O)[C@H](Cc2c[nH]c3ccccc23)NC(=O)[C@H](CC(=O)O)NC(=O)[C@H](CCC(N)=O)NC(=O)[C@H](Cc2ccc(O)cc2)NC(=O)[C@H](C(C)C)NC1=O
**Q.** Which “IC50 (CP), inhibition of classical pathway complement activation, ELISA” value (from here on “IC50 (CP), inhibition”) [1] does the source give for B7 here?
**A.** The value was 32 µM.

**Q.** And the “IC50-fold change relative to peptide 1” value [1]?
**A.** The value was 0.08 fold.

B8: Ac-I[CVYQ(NMe)DWGAHRC]T-NH2 (peptide)
peptide: Ac-ICVYQ[NMeD]WGAHRCT-NH2
modifications: disulfide 2-12
SMILES: CC[C@H](C)[C@H](NC(C)=O)C(=O)N[C@H]1CSSC[C@@H](C(=O)N[C@H](C(N)=O)[C@@H](C)O)NC(=O)[C@H](CCCNC(=N)N)NC(=O)[C@H](Cc2c[nH]cn2)NC(=O)[C@H](C)NC(=O)CNC(=O)[C@H](Cc2c[nH]c3ccccc23)NC(=O)[C@H](CC(=O)O)N(C)C(=O)[C@H](CCC(N)=O)NC(=O)[C@H](Cc2ccc(O)cc2)NC(=O)[C@H](C(C)C)NC1=O
**Q.** Which “IC50 (CP), inhibition” value [1] does the source give for B8 here?
**A.** Its value is 44 µM.

**Q.** And the “IC50-fold change relative to peptide 1” value [1]?
**A.** The value was 0.06 fold.

B9: Peptide 17-ABM (peptide)
peptide: ICVWQDWGAHRCIK
modifications: not fully specified; N-terminal acetyl; 1-methyl-Trp at 4; N-methyl-Gly (Sar) at 8; disulfide Cys2-Cys12 (cyclic); two mini-PEG-3 spacers between Ile13 and a C-terminal Lys-NH2; albumin-binding small molecule (ABM) on the Lys side chain
**Q.** What does the source list for B9?
**A.** Kd (biotinylated C3b [2]): 4.7 nM; koff (biotinylated C3b [2]): 0.0056 s⁻¹; kon (biotinylated C3b [2]): 1.2e+06 M⁻¹ s⁻¹; IC50 (nM, CP), inhibition of classical pathway complement activation, ELISA, human serum [3]: 137 nM; IC50 fold change relative to peptide 17 [3]: 0.67 fold

B10: Ac-I[CVYQDWGA(NMe)HRC]T-NH2 (peptide)
peptide: Ac-ICVYQDWGA[NMeH]RCT-NH2
modifications: disulfide 2-12
SMILES: CC[C@H](C)[C@H](NC(C)=O)C(=O)N[C@H]1CSSC[C@@H](C(=O)N[C@H](C(N)=O)[C@@H](C)O)NC(=O)[C@H](CCCNC(=N)N)NC(=O)[C@H](Cc2c[nH]cn2)N(C)C(=O)[C@H](C)NC(=O)CNC(=O)[C@H](Cc2c[nH]c3ccccc23)NC(=O)[C@H](CC(=O)O)NC(=O)[C@H](CCC(N)=O)NC(=O)[C@H](Cc2ccc(O)cc2)NC(=O)[C@H](C(C)C)NC1=O
**Q.** How did the “IC50 (CP), inhibition” value [1] turn out when B10 was run?
**A.** Its value is 94 µM.

**Q.** What about the “IC50-fold change relative to peptide 1” value [1] of the same binder?
**A.** The value was 0.03 fold.

B11: Ac-I[CVYQDWGAHR(NMe)C]T-NH2 (peptide)
peptide: Ac-ICVYQDWGAHR[NMeC]T-NH2
modifications: disulfide 2-12
SMILES: CC[C@H](C)[C@H](NC(C)=O)C(=O)N[C@H]1CSSC[C@@H](C(=O)N[C@H](C(N)=O)[C@@H](C)O)N(C)C(=O)[C@H](CCCNC(=N)N)NC(=O)[C@H](Cc2c[nH]cn2)NC(=O)[C@H](C)NC(=O)CNC(=O)[C@H](Cc2c[nH]c3ccccc23)NC(=O)[C@H](CC(=O)O)NC(=O)[C@H](CCC(N)=O)NC(=O)[C@H](Cc2ccc(O)cc2)NC(=O)[C@H](C(C)C)NC1=O
**Q.** With B11 as the binder, how does the “IC50 (CP), inhibition” value [1] read?
**A.** Its value is 154 µM.

**Q.** And the “IC50-fold change relative to peptide 1” value [1]?
**A.** Its value is 0.02 fold.

B12: Ac-I[CVYQDW(NMe)GAHRC]T-NH2 (peptide)
peptide: Ac-ICVYQDW[Sar]AHRCT-NH2
modifications: disulfide 2-12
SMILES: CC[C@H](C)[C@H](NC(C)=O)C(=O)N[C@H]1CSSC[C@@H](C(=O)N[C@H](C(N)=O)[C@@H](C)O)NC(=O)[C@H](CCCNC(=N)N)NC(=O)[C@H](Cc2c[nH]cn2)NC(=O)[C@H](C)NC(=O)CN(C)C(=O)[C@H](Cc2c[nH]c3ccccc23)NC(=O)[C@H](CC(=O)O)NC(=O)[C@H](CCC(N)=O)NC(=O)[C@H](Cc2ccc(O)cc2)NC(=O)[C@H](C(C)C)NC1=O
**Q.** With B12 as the binder, how does the “IC50 (CP), inhibition” value [1] read?
**A.** The value was 1.43 µM.

**Q.** And the “IC50-fold change relative to peptide 1” value [1]?
**A.** Its value is 1.7 fold.

B13: Ac-I[(NMe)CVYQDWGAHRC]T-NH2 (peptide)
peptide: Ac-I[NMeC]VYQDWGAHRCT-NH2
modifications: disulfide 2-12
SMILES: CC[C@H](C)[C@H](NC(C)=O)C(=O)N(C)[C@H]1CSSC[C@@H](C(=O)N[C@H](C(N)=O)[C@@H](C)O)NC(=O)[C@H](CCCNC(=N)N)NC(=O)[C@H](Cc2c[nH]cn2)NC(=O)[C@H](C)NC(=O)CNC(=O)[C@H](Cc2c[nH]c3ccccc23)NC(=O)[C@H](CC(=O)O)NC(=O)[C@H](CCC(N)=O)NC(=O)[C@H](Cc2ccc(O)cc2)NC(=O)[C@H](C(C)C)NC1=O
**Q.** Which “IC50 (CP), inhibition” value [1] does the source give for B13 here?
**A.** The value was 7.5 µM.

**Q.** What about the “IC50-fold change relative to peptide 1” value [1] of the same binder?
**A.** The value was 0.3 fold.
